From patent publication US20220251237A1 (R P SCHERER TECHNOLOGIES, published 2022)

Columns and labels:
[1] = target: T1, human glypican-5 His-tagged protein (R&D Systems) (human, UniProt P78333 25-551, limits assumed); assay: ELISA, plate coated with 1 µg/mL His-tagged glypican
T1 construct: Bought; not shown: His tag
T1 sequence (looked up): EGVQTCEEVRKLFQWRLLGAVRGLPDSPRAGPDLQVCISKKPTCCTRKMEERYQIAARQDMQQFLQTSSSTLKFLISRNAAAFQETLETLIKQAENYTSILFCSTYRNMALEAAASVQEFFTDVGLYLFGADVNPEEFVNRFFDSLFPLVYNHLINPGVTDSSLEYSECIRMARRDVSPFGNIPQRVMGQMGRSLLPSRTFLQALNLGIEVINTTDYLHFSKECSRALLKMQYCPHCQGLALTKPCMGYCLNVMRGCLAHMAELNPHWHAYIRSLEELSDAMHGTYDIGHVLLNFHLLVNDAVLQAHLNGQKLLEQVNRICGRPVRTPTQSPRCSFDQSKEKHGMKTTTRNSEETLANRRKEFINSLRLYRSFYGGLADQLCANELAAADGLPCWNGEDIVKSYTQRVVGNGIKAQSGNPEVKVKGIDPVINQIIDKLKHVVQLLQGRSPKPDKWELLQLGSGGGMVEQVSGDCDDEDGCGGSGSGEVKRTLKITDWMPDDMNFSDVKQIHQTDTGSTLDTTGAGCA
Experimental: (§1) To perform the ELISA, Maxisorp 96-well plates (Nunc) were coated overnight at 4° C. with 1 μg/mL of human glypican His-tagged proteins (glypican-1, glypican-2, glypican-3, glypican-5, and glypican-6 all from R&D Systems) in PBS. The plates were blocked with casein buffer (ThermoFisher), and then CAT-07 was plated in an 11-step series of 2-fold dilutions starting at 150 ng/mL. The plates was incubated, shaking, at room temperature for 2 h. After washing in PBS 0.1% Tween-20, bound analyte was detected with a donkey anti-human Fc-γ-specific horseradish peroxidase (HRP)-conjugated secondary antibody. Signals were visualized with Ultra TMB (Pierce) and quenched with 2 N H₂SO₄. Absorbance at 450 nm was determined using a Molecular Devices SpectraMax M5 plate reader and the data were analyzed using GraphPad Prism.

[2] = target: T2, human glypican-6 His-tagged protein (R&D Systems) (human, UniProt Q9Y625 24-529, limits assumed); assay: as above
T2 construct: Bought; not shown: His tag
T2 sequence (looked up): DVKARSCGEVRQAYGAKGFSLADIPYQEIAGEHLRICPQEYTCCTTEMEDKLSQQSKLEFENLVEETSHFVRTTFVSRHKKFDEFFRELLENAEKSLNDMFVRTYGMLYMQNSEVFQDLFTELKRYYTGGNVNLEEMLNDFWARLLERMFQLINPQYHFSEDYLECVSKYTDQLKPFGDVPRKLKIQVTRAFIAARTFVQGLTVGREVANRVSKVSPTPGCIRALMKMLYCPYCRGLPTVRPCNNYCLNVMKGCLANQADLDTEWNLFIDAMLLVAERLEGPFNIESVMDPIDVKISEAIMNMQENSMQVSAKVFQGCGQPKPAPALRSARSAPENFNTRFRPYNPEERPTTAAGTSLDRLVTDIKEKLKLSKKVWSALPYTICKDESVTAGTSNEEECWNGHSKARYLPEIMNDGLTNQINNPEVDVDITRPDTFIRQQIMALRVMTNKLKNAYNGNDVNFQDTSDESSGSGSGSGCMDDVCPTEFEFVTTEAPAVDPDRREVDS
Experimental: as §1

[3] = target: T3, human glypican-1 His-tagged protein (R&D Systems) (human, UniProt P35052 24-530, limits assumed); assay: as above
T3 construct: Bought; not shown: His tag
T3 sequence (looked up): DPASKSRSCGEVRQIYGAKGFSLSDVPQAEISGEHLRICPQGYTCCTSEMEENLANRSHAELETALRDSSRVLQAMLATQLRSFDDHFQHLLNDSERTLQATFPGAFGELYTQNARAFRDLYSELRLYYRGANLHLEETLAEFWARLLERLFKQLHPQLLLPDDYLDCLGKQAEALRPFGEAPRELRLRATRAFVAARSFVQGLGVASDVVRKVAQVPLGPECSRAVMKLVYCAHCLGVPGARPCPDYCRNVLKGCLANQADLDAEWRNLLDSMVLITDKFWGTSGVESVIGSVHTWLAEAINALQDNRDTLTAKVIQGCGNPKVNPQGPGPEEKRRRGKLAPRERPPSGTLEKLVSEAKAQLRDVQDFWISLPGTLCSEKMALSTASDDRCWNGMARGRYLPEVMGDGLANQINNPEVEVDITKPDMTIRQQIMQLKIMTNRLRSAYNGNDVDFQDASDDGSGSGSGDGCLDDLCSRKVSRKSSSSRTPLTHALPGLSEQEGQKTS
Experimental: as §1

[4] = target: T4, human glypican-2 His-tagged protein (R&D Systems) (human, UniProt Q8N158 24-554, limits assumed); assay: as above
T4 construct: Bought; not shown: His tag
T4 sequence (looked up): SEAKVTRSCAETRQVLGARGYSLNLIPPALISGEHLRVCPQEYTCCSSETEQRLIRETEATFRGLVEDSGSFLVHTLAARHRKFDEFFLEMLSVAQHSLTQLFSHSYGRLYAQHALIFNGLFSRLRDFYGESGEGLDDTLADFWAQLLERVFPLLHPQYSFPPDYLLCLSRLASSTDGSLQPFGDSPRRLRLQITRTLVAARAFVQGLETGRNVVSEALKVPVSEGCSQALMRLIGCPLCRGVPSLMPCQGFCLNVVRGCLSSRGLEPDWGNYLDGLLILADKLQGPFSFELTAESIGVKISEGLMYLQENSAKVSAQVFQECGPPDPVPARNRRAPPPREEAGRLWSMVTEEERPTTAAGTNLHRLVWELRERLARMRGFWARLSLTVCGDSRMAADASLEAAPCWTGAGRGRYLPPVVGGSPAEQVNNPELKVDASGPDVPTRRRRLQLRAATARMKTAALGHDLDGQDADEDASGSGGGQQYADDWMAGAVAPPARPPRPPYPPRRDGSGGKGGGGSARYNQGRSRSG
Experimental: as §1

[5] = target: T5, human glypican-3-His (R&D Systems) (human, UniProt P51654 25-559); assay: ELISA, plate coated with 1 µg/mL human glypican-3-His
T5 construct: Bought His-tagged protein; also called recombinant human glypican-3 protein; GPC3; not shown: His tag
Experimental: as §1, with “human glypican-3-His (R&D” for “human glypican His-tagged proteins (glypican-1, glypican-2, glypican-3, glypican-5, and glypican-6 all from R&D”, “The plate was” for “The plates were”, “The plate” for “The plates”

T5 sequence (P51654 25-559 limits assumed): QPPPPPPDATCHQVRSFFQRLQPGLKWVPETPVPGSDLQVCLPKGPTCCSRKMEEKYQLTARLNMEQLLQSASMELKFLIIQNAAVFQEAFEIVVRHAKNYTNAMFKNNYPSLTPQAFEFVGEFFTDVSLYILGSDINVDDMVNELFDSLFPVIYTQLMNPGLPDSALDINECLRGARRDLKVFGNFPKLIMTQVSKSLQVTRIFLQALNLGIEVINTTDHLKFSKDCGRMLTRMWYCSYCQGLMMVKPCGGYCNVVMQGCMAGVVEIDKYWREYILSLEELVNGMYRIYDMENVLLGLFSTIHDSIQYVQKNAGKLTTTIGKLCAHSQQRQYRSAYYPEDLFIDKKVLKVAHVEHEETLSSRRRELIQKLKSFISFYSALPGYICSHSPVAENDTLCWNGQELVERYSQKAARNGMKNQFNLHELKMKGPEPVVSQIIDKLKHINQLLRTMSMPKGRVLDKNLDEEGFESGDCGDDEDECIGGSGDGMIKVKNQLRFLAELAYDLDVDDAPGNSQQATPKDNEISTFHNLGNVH

B1: CAT-07 monoclonal antibody (antibody, human IgG1, kappa, V domains shown)
VH: QVQLVQSGAEVKKPGASVKVSCKASGYTFTSYFLHWVRQAPGQGLEWMGIIDPPTGRTTYAQKFQGRVTMTRDTSTSTVYMELSSLRSEDTAVYYCARGNYGGRYFDYWGQGTLVTVSS
VL: not shown
B1: no binding (tested: 2-fold dilutions starting at 150 ng/mL) [1]; no binding (tested: 2-fold dilutions starting at 150 ng/mL) [2]; no binding (tested: 2-fold dilutions starting at 150 ng/mL) [3]. B1: no binding (tested: 2-fold dilutions starting at 150 ng/mL) [4]; binds [5].
